Laboratory results: PMC7391724 (Scientific Reports, 2020)

What was measured:
Type in all cases: in vitro ADME
Plasma stability, mouse = conditions: 500 nM, 37 °C, 2 h
Experimental: (§1) Whole blood and plasma stability were determined for EC2629 and EC2491 at a concentration of 500 nM. Samples were extracted and analyzed using fit-for-purpose bioanalytical methods. EC2629 or EC2491 was spiked into 1 mL whole blood or plasma maintained at 37 °C for 30 min prior to use . Fifty µl aliquots were then removed at defined timepoints and stored in a 1.2 mL extraction plate prior to analysis. Samples were then extracted using protein precipitation with a 3:1 ratio of acetonitrile after addition of internal standard. The supernatant was then transferred to a new plate, evaporated, and reconstituted prior to LC–MS/MS analysis.

[1] = Plasma protein binding (ultrafiltration), across all species; conditions: rat, mouse, dog, human, 37 °C, read-out: plasma protein binding, range across all species
Experimental: Plasma ultrafiltration was used for determination of free and protein bound fractions of EC2629 and EC2491. Samples were extracted and analyzed using fit-for-purpose bioanalytical methods. Briefly, 500 nM EC2629 or EC2491 was spiked into plasma maintained at 37 °C prior to plasma ultrafiltration. Plasma spiked with 500 nM EC2629 or EC2491 was allowed to equilibrate at 37 °C for 30 min prior to processing. Next, 50 μL of plasma was transferred to a clean 1.2 mL plate stored at 2–8 °C for further processing. The remaining plasma sample volumes were transferred to 30 Kd MWCO PES filter to generate plasma ultrafiltrate by centrifugation at 10,000×g for 20 min. After which, 50 μL of each plasma ultrafiltrate was transferred to separate wells in a clean 1.2 mL plate. To all spiked plasma samples, 50 μL of blank plasma ultrafiltrate was added. 50 μL of blank plasma was added to all experimental ultrafiltrate samples. These blank matrix additions normalized the matrix effects for protein binding determination. Samples were then extracted using protein precipitation with a 3:1 ratio of acetonitrile after addition of internal standard. The supernatant transferred to a new plate, evaporated, and reconstituted prior to LC–MS/MS analysis.

[2] = Whole blood stability, mouse; conditions: 500 nM, 37 °C, two hours, mouse blood
Experimental: as §1

Plasma stability, rat = conditions: 500 nM, 37 °C, 2 h
Experimental: as §1

Plasma stability, human = conditions: 500 nM, 37 °C, 2 h
Experimental: as §1

In the case of C=C1C[C@H]2C=Nc3cc(OCCCCCOc4cc(N)c(C(=O)N5CC(=C)C[C@H]5C5OCCN5C(=O)OCC(C)(C)SSCCC(=O)NCCNC(=O)CCOCCOCCOCCOCCNC(=O)CCN5C(=O)CC(SC[C@H](NC(=O)[C@H](CC(=O)O)NC(=O)[C@H](CC(=O)O)NC(=O)[C@H](CCCNC(=N)N)NC(=O)[C@H](CC(=O)O)NC(=O)CC[C@H](NC(=O)c6ccc(NCc7cnc8nc(N)[nH]c(=O)c8n7)cc6)C(=O)O)C(=O)O)C5=O)cc4OC)c(OC)cc3C(=O)N2C1 (some centres unmarked) [EC2629], the plasma stability (Plasma stability, mouse) is reported as “stable”, the fraction unbound at 30 min, 500 nM [1] is reported as 0.026 to 0.128 and the whole blood stability [2] is reported as “no observed degradation”. The plasma stability (Plasma stability, rat) was “stable” and the plasma stability (Plasma stability, human) was “stable”.
